Test results published in publication PMC10290082, “Tau protein binds to the P53 E3 ubiquitin ligase MDM2” (Scientific Reports, 2023).

Target: T1, recombinant human MDM2 (human, UniProt Q00987 1-491)
T1 construct: E3 ubiquitin-protein ligase MDM2, human; source: bought: Biotechne (E3-204-050)
Test: pull-down; purified recombinant proteins (15 ng), alone or together, on beads coupled to the pDIQ peptide; uncoupled beads as control; western blot
Conditions: both partners purified

T1 sequence (Q00987 whole entry): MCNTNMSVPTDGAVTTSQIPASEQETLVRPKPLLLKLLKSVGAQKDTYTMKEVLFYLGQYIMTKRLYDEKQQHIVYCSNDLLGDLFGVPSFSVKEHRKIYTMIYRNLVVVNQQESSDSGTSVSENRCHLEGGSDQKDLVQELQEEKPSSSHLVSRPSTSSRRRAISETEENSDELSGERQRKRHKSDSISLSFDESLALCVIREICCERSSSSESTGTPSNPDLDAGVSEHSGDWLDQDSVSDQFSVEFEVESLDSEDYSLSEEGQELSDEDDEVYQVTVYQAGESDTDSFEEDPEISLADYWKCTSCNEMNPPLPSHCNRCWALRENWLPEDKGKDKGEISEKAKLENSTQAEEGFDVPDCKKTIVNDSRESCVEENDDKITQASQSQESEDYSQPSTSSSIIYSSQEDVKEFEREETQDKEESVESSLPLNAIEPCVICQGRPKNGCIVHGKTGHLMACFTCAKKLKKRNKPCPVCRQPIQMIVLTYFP

B1: pDIQ peptide (peptide)
peptide: ETFEHWWSQLLSGGC
binding result: binds
